This is an account of results in the supplement of paper PMC9170038.

This data set deals with K4 kissing-loop RNA reporter. Description: apparent KD of K4 kissing-loop reporter; higher = weaker reporter binding. To be noted: Eterna round: R107. The method, then:
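RNA-MaP round R107: designed RNA switches with theophylline, tryptophan, arginine or FMN aptamers are transcribed on-chip within common flanks. They are titrated with a labelled K4 kissing-loop RNA reporter in RNA-MaP buffer (100 mM Tris pH 7.5, 80 mM KCl, 4 mM MgCl2), without ligand or with the indicated ligand. Median apparent KD per design.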

[1] abbreviates: input ligand: theophylline 20 uM.
Where [2] appears, read: input ligand: tryptophan 2.4 mM.
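Further: bound reporter read as fluorescence of individual clusters on recovered sequencing chips by microscopy, with normalized cluster intensities fitted with a binding model.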

Turning to “GGGAGCAAAGCUCCCGGAUGCUAUUACCAGUAGGAUAUCUGGAAACAGAGAAGGGCUAAGCCAGUGAUGUUGGUUUCGAGCAUCC”, the “apparent KD of K4 kissing-loop reporter” value runs as follows: (input ligand: FMN 200 uM) 596 nM; (input ligand: arginine 13.2 mM) 575 nM; (input ligand: none) 754 nM; under setting [1], 575 nM; under setting [2], 514 nM.

With “GGGCAUCAGGCUGAUACCAGUGAUAAAGGAUAAGAGACAGGGAGUGAUGUUCCCUUUACCCACCCUUGGCAGCAGUUUAAGUUUG [Exclusion Theophylline B GF 16]”, the “apparent KD of K4 kissing-loop reporter” value was determined as 92.8 nM (input ligand: FMN 200 uM); 94.9 nM (input ligand: arginine 13.2 mM); 111 nM (input ligand: none); 94.3 nM under setting [1]; 87.1 nM under setting [2].

Consider “GGGCAUGAUACGAUAAAAUAGUGGAGAGAUACCAGCGUUUUAGAUCGCCCUUGGCAGCUCUCGAGUGAUGUUCGGGUAGCUCUGA [Onedra]”, for which the “apparent KD of K4 kissing-loop reporter” value runs as follows: (input ligand: FMN 200 uM) 101 nM; (input ligand: arginine 13.2 mM) 98.5 nM; (input ligand: none) 115 nM; under setting [1], 114 nM; under setting [2], 104 nM.

Take “GGGCGCGGCGCGGCCGCCACUGCGCCUGGGUGCUCGCUGAGUGAUGUUCGUCGGCGGUUGGGUGGUAGGACCGGGUGCUGGCCGG [BDazzled - #13 SS Tryptophan B]”: the “apparent KD of K4 kissing-loop reporter” value is, setting by setting: (input ligand: FMN 200 uM) 654 nM; (input ligand: arginine 13.2 mM) 463 nM; (input ligand: none) 525 nM; under setting [1], 522 nM; under setting [2], 527 nM.

Regarding “GGGUCAGCGCGAAGGAGCGCCCUGACAGGUUGCUGCCGUGGGCAGUGAUGUUGCUCAGUCCGGCAGGUAGGUCGCGUGCUGACCC”, the “apparent KD of K4 kissing-loop reporter” value is, setting by setting: (input ligand: FMN 200 uM) 202 nM; (input ligand: arginine 13.2 mM) 151 nM; (input ligand: none) 183 nM; under setting [1], 166 nM; under setting [2], 169 nM.

In the case of “GGGUCUGCCGGAAGGAGCGCACUAUGGAGUGAUGUUCCAUGACCGCACAGCUUGCGGUCAGUGCAGGUAGGUCGCCGGUAGCGUU [Inesor]”, the “apparent KD of K4 kissing-loop reporter” value was found to be 163 nM (input ligand: FMN 200 uM); 154 nM (input ligand: arginine 13.2 mM); 175 nM (input ligand: none); 177 nM under setting [1]; 162 nM under setting [2].

“GGGUCUGUCGGAAGGAGCGCGCUAUGGAGUGAUGUUCCAUGACCGUACAGCUUACGGUCAGCGCAGGUAGGUCGCCGAUAGCGUU [Geordiar]”: the “apparent KD of K4 kissing-loop reporter” value amounted to 153 nM (input ligand: FMN 200 uM); 116 nM (input ligand: arginine 13.2 mM); 142 nM (input ligand: none); 151 nM under setting [1]; 120 nM under setting [2].

For the sequence “GGGUUGAGCGGAAGGAGCGGCUGAACCAGUGAUGUUGGUUAAUCCAAGUGAUGUUGGAAAAGCCAGGUAGGUCGCCGCUUUAUCC [Same State Arg B GF 3]”, the “apparent KD of K4 kissing-loop reporter” value (input ligand: FMN 200 uM) stood at 979 nM; the “apparent KD of K4 kissing-loop reporter” value (input ligand: arginine 13.2 mM) was determined as 533 nM; the “apparent KD of K4 kissing-loop reporter” value (input ligand: none) turned out to be 1180 nM; the “apparent KD of K4 kissing-loop reporter” value under setting [1] amounted to 965 nM; the “apparent KD of K4 kissing-loop reporter” value under setting [2] is 774 nM.

With “GGUAGCAUGGCGGCCGCCACUACCUAGUGAUGUUAGGCUGUGGACAUAGGAGCAAAAUAAAUAUGUAGGACCGGGCCAUGCUACC”, the “apparent KD of K4 kissing-loop reporter” value came to 127 nM (input ligand: FMN 200 uM); 101 nM (input ligand: arginine 13.2 mM); 121 nM (input ligand: none); 126 nM under setting [1]; 123 nM under setting [2].

For “GGUAGCAUGGCGGCCGCCACUACCUAGUGAUGUUAGGCUGUGGACAUAGGAGCAAGAUAAAUAUGUAGGACCGGGCCAUGCUACC”, the “apparent KD of K4 kissing-loop reporter” value was found to be 129 nM (input ligand: FMN 200 uM); 88.8 nM (input ligand: arginine 13.2 mM); 103 nM (input ligand: none); 119 nM under setting [1]; 111 nM under setting [2].

Take “GGUAGCAUGGCGGCCGCCACUCUAUGCGAGUGAUGUUCGCAGCUCAAAGAGCACCCGGGAACAGAGAGGACCGGGCCAUGCUACC”: the “apparent KD of K4 kissing-loop reporter” value runs as follows: (input ligand: FMN 200 uM) 294 nM; (input ligand: arginine 13.2 mM) 228 nM; (input ligand: none) 261 nM; under setting [1], 302 nM; under setting [2], 213 nM.

As for “GGUAGCAUGGCGGCCGCCACUGAGGCCCUAUGCGAGUCCUCUACAACCUAGUGAUGUUAGGCGUCCAGGACCGGGCCAUGCUACC”, the “apparent KD of K4 kissing-loop reporter” value stood at 95.7 nM (input ligand: FMN 200 uM); 44.1 nM (input ligand: arginine 13.2 mM); 71.2 nM (input ligand: none); 58.4 nM under setting [1]; 93 nM under setting [2].

“GGUAGCAUGGCGGCCGCCACUUAGACUGGAUCGGAAACGAUCCAGUGAAAACGAGUGAUGUUCGUAAGGACCGGGCCAUGCUACC”: the “apparent KD of K4 kissing-loop reporter” value is, setting by setting: (input ligand: FMN 200 uM) 386 nM; (input ligand: arginine 13.2 mM) 301 nM; (input ligand: none) 318 nM; under setting [1], 350 nM; under setting [2], 173 nM.

With “GGUAGCAUGGCGGCCGCCACUUCAAAUGGAGUGAUGUUCCAAGGCAUCGCGAAAGCGAUGCCAGGAAGGACCGGGCCAUGCUACC”, the “apparent KD of K4 kissing-loop reporter” value is, setting by setting: (input ligand: FMN 200 uM) 831 nM; (input ligand: arginine 13.2 mM) 859 nM; (input ligand: none) 522 nM; under setting [1], 566 nM; under setting [2], 143 nM.

Turning to “GGUCGAGUGAUGUUCGAUGUAGUGCAUUCAGAGGAUAUAGGAUGGGCUAGAAGGCUGAAAGGUGCUUCGAGUGAUGUUCGAGGAU [Exclusion FMN A GF 3]”, the “apparent KD of K4 kissing-loop reporter” value worked out at 105 nM (input ligand: FMN 200 uM); 80.7 nM (input ligand: arginine 13.2 mM); 126 nM (input ligand: none); 115 nM under setting [1]; 89 nM under setting [2].

Regarding “GGUGACAACCAGAAGUGAUGUAUAGAAUAGCGAGGACCGGUACGGCCGCCACUCGUGAAGAGAAAGGAGUGAUGUUCCGUAAUGG [Kazoo C4]”, the “apparent KD of K4 kissing-loop reporter” value by setting is: (input ligand: FMN 200 uM) 250 nM; (input ligand: arginine 13.2 mM) 260 nM; (input ligand: none) 271 nM; under setting [1], 243 nM; under setting [2], 85.1 nM.

Take “GGUGACGGCCAGGAGUGAUGUAUAGAAUAGCGAGGACCGGUACGGCCGCCACUCGUGAAGAAAAGGGAGUGAUGUUCCGUAAUGG [Kazoo B]”: the “apparent KD of K4 kissing-loop reporter” value stood at 380 nM (input ligand: FMN 200 uM); 284 nM (input ligand: arginine 13.2 mM); 450 nM (input ligand: none); 229 nM under setting [1]; 302 nM under setting [2].

As for “GGUGCUGUCUGUGCCGCCCUCCUCGUCCCUCGAGGACCGGUACGGCCGCCACUCGAGUGAUGUUCGGGUAGCCAUCCCUGCUAGC [Bdazzled - #19 Exc. Tryptophan A]”, the “apparent KD of K4 kissing-loop reporter” value is, setting by setting: (input ligand: FMN 200 uM) 647 nM; (input ligand: arginine 13.2 mM) 666 nM; (input ligand: none) 680 nM; under setting [1], 590 nM; under setting [2], 937 nM.

In the case of “GGUUUAUAAGAGGAUACCAGUACAAAUAAAGUACAUUAAUAGUAGAGUGAUGUUCUAAAGUACCCUUGGCAGCUUAGAUUAAGUU [ExTheophylB.F]”, the “apparent KD of K4 kissing-loop reporter” value came out at 114 nM (input ligand: FMN 200 uM); 226 nM (input ligand: arginine 13.2 mM); 151 nM (input ligand: none); 217 nM under setting [1]; 85.4 nM under setting [2].

Consider “GGUUUAUAGGAGGAUACCAGUACGAAUAAAGUACAUUAAUAGUAGAGUGAUGUUCUAAAGUACCCUUGGCAGCUUAGAGUAAGUU [#18 K4 Theophylline B Exclusion]”, for which the “apparent KD of K4 kissing-loop reporter” value came to 105 nM (input ligand: FMN 200 uM); 212 nM (input ligand: arginine 13.2 mM); 148 nM (input ligand: none); 223 nM under setting [1]; 80.5 nM under setting [2].

Consider “GUACGCUCUCGAGUGAUGUUCGGUAAUAGUUAGGAUAUCGCUUUUGCGAGAAGGAACUGAAUGAGGAAACUCGUUCUGAGUGUAC [FMN A 18]”, for which the “apparent KD of K4 kissing-loop reporter” value (input ligand: FMN 200 uM) was 618 nM; the “apparent KD of K4 kissing-loop reporter” value (input ligand: arginine 13.2 mM) was determined as 183 nM; the “apparent KD of K4 kissing-loop reporter” value (input ligand: none) is 342 nM; the “apparent KD of K4 kissing-loop reporter” value under setting [1] came out at 398 nM; the “apparent KD of K4 kissing-loop reporter” value under setting [2] was 239 nM.

For “GUACGCUCUCGAGUGAUGUUCGGUAAUCGCGAGGAUAUCGCUUUUGCGAGAAGGCGCGGAAUGAGGAAACUCGUUCUGAGUGUAC [FMN A 23]”, the “apparent KD of K4 kissing-loop reporter” value by setting is: (input ligand: FMN 200 uM) 364 nM; (input ligand: arginine 13.2 mM) 444 nM; (input ligand: none) 461 nM; under setting [1], 637 nM; under setting [2], 715 nM.
